Measurements: paper PMC3790011, “Transcription Factor Reb1p Regulates DGK1-encoded Diacylglycerol Kinase and Lipid Metabolism in Saccharomyces cerevisiae*”

T1: Reb1p (His6-Reb1p) (Saccharomyces cerevisiae RS453, UniProt P21538 1-810)
T1 sequence: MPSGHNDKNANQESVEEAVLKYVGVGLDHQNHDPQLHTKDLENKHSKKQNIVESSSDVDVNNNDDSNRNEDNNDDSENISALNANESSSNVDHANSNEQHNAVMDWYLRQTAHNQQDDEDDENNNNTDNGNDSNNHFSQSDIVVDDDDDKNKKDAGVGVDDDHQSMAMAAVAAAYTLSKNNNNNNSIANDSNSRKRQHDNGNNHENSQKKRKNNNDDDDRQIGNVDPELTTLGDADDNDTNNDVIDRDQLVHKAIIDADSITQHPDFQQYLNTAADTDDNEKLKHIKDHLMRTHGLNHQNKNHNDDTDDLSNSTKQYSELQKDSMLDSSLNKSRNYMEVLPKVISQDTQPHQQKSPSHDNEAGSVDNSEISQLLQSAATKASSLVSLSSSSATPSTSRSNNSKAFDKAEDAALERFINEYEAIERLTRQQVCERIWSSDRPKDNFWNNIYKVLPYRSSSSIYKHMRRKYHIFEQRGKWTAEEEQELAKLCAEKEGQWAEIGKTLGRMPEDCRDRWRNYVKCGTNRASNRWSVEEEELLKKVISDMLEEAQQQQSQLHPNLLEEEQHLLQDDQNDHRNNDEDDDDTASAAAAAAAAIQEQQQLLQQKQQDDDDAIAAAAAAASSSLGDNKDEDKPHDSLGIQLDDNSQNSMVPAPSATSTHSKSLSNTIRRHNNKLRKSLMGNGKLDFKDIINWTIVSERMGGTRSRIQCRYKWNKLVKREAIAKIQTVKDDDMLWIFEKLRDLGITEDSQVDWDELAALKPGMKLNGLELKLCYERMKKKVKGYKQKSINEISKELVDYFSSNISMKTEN


Experiments:
Reb1p (His6-Reb1p) [1] = molecular target: T1, Reb1p (His6-Reb1p); assay: competition; 10 mM Mg2+; 0.5 ug Reb1p, 4-16 pmol unlabeled competitor against 4 pmol labeled wild type probe; 10 mM Tris-HCl pH 8.0, 10 mM MgCl2, 50 mM KCl, 1 mM DTT, 0.025 mg/ml poly(dI-dC), 0.2 mg/ml BSA, 0.04% IGEPAL CA-630, 10% glycerol; 15 min, room temperature; 5% PAGE in 0.5x TBE; conditions: protein: recombinant; tags: N-terminal His6 (pET-15b); blunt
Reb1p (His6-Reb1p) [2] = molecular target: T1, Reb1p (His6-Reb1p); assay: EMSA; 10 mM Mg2+; 0.2-1.0 ug Reb1p, 4 pmol probe; 10 mM Tris-HCl pH 8.0, 10 mM MgCl2, 50 mM KCl, 1 mM DTT, 0.025 mg/ml poly(dI-dC), 0.2 mg/ml BSA, 0.04% IGEPAL CA-630, 10% glycerol; 15 min, room temperature; 5% PAGE in 0.5x TBE; conditions: protein: recombinant; tags: N-terminal His6 (pET-15b); label: 32P (alpha-32P dTTP, Klenow); blunt

Row | Binder | binding result (Reb1p (His6-Reb1p) [1]) | binding result (Reb1p (His6-Reb1p) [2])
1 | unlabeled DGK1 wild type competitor (dsDNA) DNA 1: AGGGTCCATAGCGGGTAACAAATTATTGG DNA 2: CCAATAATTTGTTACCCGCTATGGACCCT | binds | –
2 | DGK1 promoter Reb1p site wild type (dsDNA) DNA 1: AGGGTCCATAGCGGGTAACAAATTATTGG DNA 2: CCAATAATTTGTTACCCGCTATGGACCCT | – | binds
